Data on 26 molecules can be found in US20240218057A1 (ROCKEFELLER UNIVERSITY, published 2024).

First the molecules themselves.
B1: C928 (antibody, V domains shown)
VH: QVQLVESGGGVVQPGRSLRLSCAASGFTFSFFDMHWVRQAPGKGLEWVADISYDGSNQYYGDSVKGRFTISRDNSKSTLYLQMNSLRAEDTAVYYCAKPVDTAMFDSWGQGTLVTVSS
VL: SYELTQPPSVSVAPGETARITCGGNNIGHKSVHWYQQQPGQAPVLVIYYDSERPSGIPERFSGSNSGNTATLTISRVEAGDEADYHCQVWDGGNDHLVIFGGGTKLTVL
B2: C926 (antibody, V domains shown)
VH: QVQLVESGGGVVQPGRSLRLSCAASGFGLITYSMHWVRQAPGKGLEWVGLISFDGNTTYYADSVRGRFTISRDNLANILYLQMNSLRPDDTALYYCARDKRGVIRGLLNFWGQGSLVTVSS
VL: DIVMTQSPDSLAVSLGERATINCKSSQSLLPSSNSNNYLAWYQQKSGQPPNLLIYWASTRESGVPDRFSGSGSETDFSLTISNLQAEDVAVYYCQQYYNTPHTFGGGTKVEI
B3: C918 (antibody, V domains shown)
VH: QVQLVESGGGLVKPGGSLRLSCTASGFTFSDYYMTWLRQAPGKGLEWVSYISSTSPYTSYADSVKGRFTISRDNARNSVYLQMNSLRAEDTAIYYCARVPPPQRLHPFDVWGQGTMVTVSS
VL: DIQMTQSPSTLSASVGDRVTITCRASQSISSWLAWYQQKPGKAPKLLIYQASSLESGVPSRFSGSGSGTDFTLTISSLQPDDFATYYCQQYFRYSWTFGQGTKVEI
B4: C934 (antibody, V domains shown)
VH: QVQLVQSGAEVKKPGASVKVSCKASGYTFTDYYIHWVRQAPGQGLEWMGWINPNSGGTNYAQKFQGRVTMTRDTSISTAYMDLSRLRSDDTAVYYCARDVIITMGRGVVFRMDVWGQGTTVTVSS
VL: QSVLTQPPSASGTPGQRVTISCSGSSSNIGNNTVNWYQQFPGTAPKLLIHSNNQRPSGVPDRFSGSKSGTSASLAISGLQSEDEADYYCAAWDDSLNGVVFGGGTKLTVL
B5: C924 (antibody, V domains shown)
VH: QVQLVESGGGVVQPGRSLRLSCAASGFTFSSYGMHWVRQAPGKGLEWVAVISDDGSNKYYADSVKGRFTISRDNSKNTLYLQMNSLRAEDTAVYYCAKSWWLSENWFDPWGQGTLVTVSS
VL: EIVMTQSPATLSVSPGERATLSCRASQSVSSNLAWYQQKPGQAPRLLIYGASTRATGIPARFSGTGSGTEFTLTISSLQSEDFAVYYCQQYNNWPLTFGGGTKVEIK
B6: C925 (antibody, V domains shown)
VH: B5 VH with S31N, M34L, I51T, S56N, N57R, N74D, S85N, A88T
VL: B5 VL with S30R, K39R, S52F, G64V, T65S, S76D
B7: C931 (antibody, V domains shown)
VH: QVQLVESGGGVVQPGRSLRLSCAASGFSFSTYGMHWVRQAPGKGLEWVAVISFDGSQKYYGDSVKGRFTISRDNPKNTLDLQMNSLRAEDTAVYYCAKVVVRGVIISLYYGMDVWGQGTTVTVSS
VL: not shown
B8: C938 (antibody, V domains shown)
VH: QVQLVESGGGVVQPGRSLRLSCAASGFTFRSHAMHWVRQAPGKGLEWVAIISSDGFNKYYADSVKGRFTISRDNSKNTLYVHMNSLRVEDTAIYYCASGLLWFETREISGAPDYGMAVWGQGATVTVSS
VL: DIQMTQSPSSLSASVGDRVTITCRASQNISNFLNWYQQKPGKAPKLLIYAASSLQSGVPSRYSGSGSGTDFTLTISSLQAEDFATYYCQQSYSTPLTFGGGTKVEIK
B9: C913 (antibody, V domains shown)
VH: EVQLVESGGVVVQPGGSLRLSCAASGFTFDDYSMHWVRQVPGKGLEWIAVIFWDGTSTYYADSVKGRFTISRDNSKKSLYLQMNSLRSEDTALYYCAKDSEDCSSTSCYVDHWGQGTLVTVSS
VL: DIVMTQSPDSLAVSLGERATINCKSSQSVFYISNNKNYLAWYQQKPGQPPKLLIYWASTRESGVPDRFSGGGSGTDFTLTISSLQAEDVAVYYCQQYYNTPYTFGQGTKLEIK
B10: C929 (antibody, V domains shown)
VH: EVQLVESGGGLIQPGGSLRLSCAASGFTVSSNYMTWVRQAPGKGLEWVSVIYSGGTTYYADSVKGRFTISRDNSKNTLYLQMNSLRAEDTAVYYCARDLVVWGMDVWGQGTTVTVSS
VL: DIQLTQSPSFLSASVGDRVTITCRASQGISSYLAWYQQKPGKAPKLLIYAASTLQSGVPSRFSGSGSGTEFTLTISSLQPEDFATYYCQLLNSYPYTFGQGTKLEIK
B11: C936 (antibody, V domains shown)
VH: B10 VH with T35S, T56S, Y58F, V100G, V101T, W102G, G103L, M104F, V106Y, T112L
VL: DIQLTQSPSFLSASVGDRVTITCRASQGISSYLAWYQQKPGKAPKLLIYAASTLQSGVPSRFSGSGSGTEFTLTISSLQPEDFATYYCQQLDSYPPGTFGPGTKVDIK
B12: C937 (antibody, V domains shown)
VH: EVQLVESGGGLIQPGGSLRLSCAASELTVSSNYMSWVRQAPGKGLEWVSVIYPGGSTFYADSVKGRFTISRDNSKNTLYLQMNSLRAEDTAVYYCARDLGTGLFDYWGQGTLVTVSS
VL: B11 VL with Y87F, Q90L, D92N, Y94N
B13: C930 (antibody, V domains shown)
VH: B10 VH with I12F, S21A, F27I, T35S, A40P, S53A, T56S, Y58F, F67L, M82I
VL: B10 VL with L90Q, S93T
B14: C916 (antibody, V domains shown)
VH: EVQLVESGGGLVQPGGSLRLSCAASGFTFSNYDMHWVRQATGRGLEWVSTIGTAGDTYYPGSVKGRFTISRENAKNSLYLQMNSLRAGDTALYYCARVRYDSSGYFWSLDYWGQGTLVTVSS
VL: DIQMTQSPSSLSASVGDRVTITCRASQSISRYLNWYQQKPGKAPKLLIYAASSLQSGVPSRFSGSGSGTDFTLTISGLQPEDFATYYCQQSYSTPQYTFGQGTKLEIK
B15: C917 (antibody, V domains shown)
VH: B14 VH with R43K, E46D, L92V, Y100F, S102T
VL: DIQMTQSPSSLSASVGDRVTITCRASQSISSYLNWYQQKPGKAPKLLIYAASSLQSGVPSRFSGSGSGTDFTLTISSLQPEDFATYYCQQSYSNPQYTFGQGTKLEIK
B16: C920 (antibody, V domains shown)
VH: QLQLQESGPGLVKPSETLSLTCAVSGGSISNSPFYWGWIRQPPGKGLECIGSIYYSGSTYYNPSLKSRVTISVDTSKKQFSLKLSSVTAADTAVYYCARHFADGSGRVVDSWGQGILVTVSS
VL: EIVLTQSPATLSLSPGERATLSCRASQSVSSYLAWYQQKPGQAPSLLIYDVSNRATGIPARFSGSGSGTDFTLTISSLEPEDFAVYYCQQRINWPLYTFGQGTKLEIK
B17: C921 (antibody, V domains shown)
VH: B16 VH with G37A, S56T, K77T, S85R, S111Y, I116T
VL: B16 VL with S30T, S31T, S45R, N53S, I92S
B18: C940 (antibody, V domains shown)
VH: QVQLQESGSGLVKPSQTLSLTCAVSGGSASSGGYSWSWIRQPPGKGLEWIGYIYHSGSTYYNPSLKSRVTISLDRTKKQFSLKLSSVTAADTAVYYCARFCLSGSHYLFAFDIWGPGTMVTVSS
VL: QSALTQPASVSGSPGQSITISCTATSSDVGGYNFVSWYQQYPGKVPKLLIYDVGNRPSGVSNRFSGSKSGNTASLTISGLQAEDEADYYCSSYTNSSTFFGGGTKLTVL
B19: C932 (antibody, V domains shown)
VH: QVQLVESGGSVVQPGKSLRLSCAGSGFAFSTYGMHWVRQAPGKGLEWVAVISSDGGNKYYADSVKGRFTISRDNYENTLYLQMNSLGAEDTAVYYCAKVALRGVFISLYYGMDVWGQGTTVTVSS
VL: SYELTQPPSVSVTPGQTASITCSGDKLGDKYACWFLQKPGQSPLLVIYQDTKRPSGIPDRLSGSKSGNTATLTISGTQAMDEADYYCQTWDSSAVVFGGGTKLTV
B20: C939 (antibody, V domains shown)
VH: QVQLVESGGGVVQPGRSLRLSCAASGFTFSSYAMHWVRQAPGKGLESVALISHDGSNKYHADSVKGRLTISRDTSKNTLYLQMDSLRPEDTAVYYCASGLLWFETAGGSGAPDYGMAVWGQGTTVTVSS
VL: DIQMTQSPSSLSASVGDRVTITCRASQSISTYLNWYQQKPGRAPKFLIYAASSLQSGVPSRFSGSGSGTDFTLIISGLQPEDFATYFCQQSYNTPLTFGGGTKVEIK
B21: C914 (antibody, V domains shown)
VH: QVQLQESGPGLVKPSQTLSLTCTVSGGSITSGDYYWTWIRQPPGKGLEWIGYIYYSGNTYYNLSLRSRITISEDTSKNQFSLKLRSVTAADTAVYYCARAMITFGGVIVVLDYWGQGTLVTVSS
VL: QSALTQPPSASGSPGQSVTISCTGTSTDVGGYNFVSWYQQHPGKAPKLMIYEVSKRPSGVPDRFSGSKSGNTASLTVSGLQAEDEADYYCSSYAGSNILYVFGTGTKVTVL
B22: C915 (antibody, V domains shown)
VH: QVQLQESGPGLVKPSQTLSLTCTVSGGSISSGDYYWSWIRQPPGKGLEWIGYIYYSDSTYYNPSLRTRVTISVDTSKNQFSLKLTSVTAADTAVYYCARAMITFGGVIVLYDYWGQGTLVTVSS
VL: B21 VL with T27S, F34Y, S54T, D62A, N97I, I98L
B23: C935 (antibody, V domains shown)
VH: QVQLVESGGGVVQPGRSLRLSCAATGFTFSSYGMHWVRQAPGKGLEWVALIWYDGSNQYYVDSVKGRFTISRDNSKKTLYLQMNSLRVEDTAVYYCARDFSNSDMVTLSDAFDIWGQGTMVTVSS
VL: DIQLTQSPSFLSASVGDRVTIACRASQGISSYSSYLAWYQQKPGKAPKLLIYAASTLQSGVPSRFSGSGSGTEFTLTISSLQPEDFATYYCQQLNSYPLFTFGPGTKVDIK
B24: C922 (antibody, V domains shown)
VH: QVQLVESGGGLVKPGGSLRLSCAGSGFTFTDYYMAWIRQAPGKGLEWVSYISTSDRFINYADSVKGRFTISRDDAKNSLYLQMNSLRAEDTAVYYCARDGGGYDRFDHWGQGTLVTVSS
VL: DIQMTQSPSSLSASVGDRVTITCQASQDISNLLNWYQQKAGKAPKLLIYDASNLETGVPSRFSGSGSGTDFTFTISSLQPEDIATYYCLQYDNLPLTFGQGTKLEIK
B25: C923 (antibody, V domains shown)
VH: QVQLVESGGGLVKPGGSLRLSCAASGFTFSDYHMTWIRQAPGKGLEWVSYISNRSTYRNYADSVKGRFTISRDNAKNSLYLQMNSLRAEDTAVYYCARDGGAYDRFDYWGQGTLVTVSS
VL: B24 VL with S30K, N31K, L32F, A40P, F71L, L89Q
B26: C927 (antibody, V domains shown)
VH: QVQLVESGGGVVQPGRSLRLSCVASGFTFSYFDMHWVRQAPGKGLEWVALISHDGSTTFYGDSARGRFTISRDNSRNTLDLQMNSLRPEDTAVYFCAKPVDAAMFDFWGQGTLVTVS
VL: SYELTQPPSVSVAPGKTARITCGGNNIGSKSVHWYQQRPGQAPVLVIYYDSDRPSGIPERFSGSNSGNTATLTISRVEAGDEADFYCQVWDRSTNHLVVFGGGTQLTVL

Residue numbers refer to the chain shown, from its start.

The target in this test is T1, SARS-COV-2 RBD (SARS-COV-2, UniProt P0DTC2 319-539).
T1 construct: also called WT RBD
Description: ELISA, RBD coated on plate. On the technique in general: ELISA stands for enzyme-linked immunosorbent assay.
As a reminder, the EC50 is the concentration needed to bring the measured effect to its halfway point. Higher therefore signals weaker potency. B1 registered an EC50 of 4.14 ng/mL. With B2 the figure was 4.72 ng/mL.

In turn, B3 gave an EC50 of 1.78 ng/mL. To B4 belongs 0.95 ng/mL; to B5, 2.5 ng/mL; to B6, 2.26 ng/mL.

For the molecule B7, a half-maximal response (EC50) required 2.57 ng/mL. Molecule B8 had an EC50 of 2.63 ng/mL.

In turn, B9 registered an EC50 of 2.58 ng/mL. To B10 belongs 2.07 ng/mL; to B11, 1.56 ng/mL. With B12 the figure was 0.97 ng/mL; with B13, 1.24 ng/mL; with B14, 1.97 ng/mL. With B15 the figure was 1.05 ng/mL. As to B16, the midpoint of the response, the EC50, lay at 2.35 ng/mL. To B17 belongs 3.91 ng/mL; to B18, 1.8 ng/mL; to B19, 3.57 ng/mL. To B20 belongs 3.62 ng/mL. In the case of B21, the midpoint of the response, the EC50, lay at 1.59 ng/mL.

Molecule B22 registered an EC50 of 3.49 ng/mL.

B23 gave an EC50 of 2.86 ng/mL. B24 displayed an EC50 of 2.42 ng/mL. To B25 belongs 1.95 ng/mL; to B26, 3.77 ng/mL.
